Measured values as given in US20130137856A1, “PROTEIN BINDING DOMAINS STABILIZING FUNCTIONAL CONFORMATIONAL STATES OF GPCRS AND USES THEREOF” (priority 2010, published 2013).

Molecular target: β2AR-T4L (β2AR with the third intracellular loop replaced by T4 lysozyme, truncated at position 365) (human) (UniProt P07550)
Assay: cell-based or functional assay

High affinity state Ki of (-)-isoproterenol, [3H]-DHA competition binding, β2AR-T4L in HDL particles + 1 µM NB80 (β2AR-T4L alone: 33.5): 0.56 nM
fold increase of the affinity of isoproterenol: 60 fold
B1: Nanobody-80 (Nb80) (VHH, not shown: small tags and cut ends)
VHH: QVQLQESGGGLVQAGGSLRLSCAASGSIFSINTMGWYRQAPGKQRELVAAIHSGGSTNYANSVKGRFTISRDNAANTVYLQMNSLKPEDTAVYYCNVKDYGAVLYEYDYWGQGTQVTVSS
